The record followed here is US20180022819A1 (published 2018).

The target in test [1] is T1, prostate-specific membrane antigen (PSMA) (human, UniProt Q04609 1-750). Briefly: flow cytometry binding, 22Rv1 cells; 1 wk enza.
Test [2] deals with T1, prostate-specific membrane antigen …. Briefly: flow cytometry binding, 22Rv1 cells; 2 wk enza.
For test [3] the target is unchanged. Put plainly: flow cytometry binding, 22Rv1 cells; 3 wk enza.
Test [4] has the same target. Put plainly: flow cytometry binding, 22Rv1 cells; 0 enza (untreated).

T1 sequence (Q04609 whole entry): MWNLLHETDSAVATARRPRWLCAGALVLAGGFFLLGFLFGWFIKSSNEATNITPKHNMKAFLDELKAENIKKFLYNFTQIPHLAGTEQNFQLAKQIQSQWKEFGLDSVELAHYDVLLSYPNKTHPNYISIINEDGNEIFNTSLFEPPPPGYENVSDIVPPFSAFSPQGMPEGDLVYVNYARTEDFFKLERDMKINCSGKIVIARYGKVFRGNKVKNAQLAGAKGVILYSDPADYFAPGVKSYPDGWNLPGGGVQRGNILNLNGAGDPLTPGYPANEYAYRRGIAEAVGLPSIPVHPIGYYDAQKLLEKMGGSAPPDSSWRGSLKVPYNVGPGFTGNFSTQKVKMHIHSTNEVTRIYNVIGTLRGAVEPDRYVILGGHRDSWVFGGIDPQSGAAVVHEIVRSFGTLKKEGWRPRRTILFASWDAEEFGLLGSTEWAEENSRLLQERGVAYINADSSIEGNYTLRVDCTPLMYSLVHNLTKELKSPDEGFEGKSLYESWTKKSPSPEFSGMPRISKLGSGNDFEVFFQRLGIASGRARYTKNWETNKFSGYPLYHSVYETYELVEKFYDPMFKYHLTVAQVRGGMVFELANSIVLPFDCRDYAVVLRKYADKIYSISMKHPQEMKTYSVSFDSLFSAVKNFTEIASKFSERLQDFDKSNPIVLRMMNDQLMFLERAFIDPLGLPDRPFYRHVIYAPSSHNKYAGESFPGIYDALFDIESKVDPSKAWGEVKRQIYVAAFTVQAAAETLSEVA

B1: FITC-labeled anti-PSMA monoclonal antibody 107-1A4 (Acris) (antibody, V domains shown)
VH: EIQLQQSGPELVKPGASVKMSCKASGYTFTDYYMHWVKQNNGESLEWIGYFNPYNDYTRYNQNFNGKATLTVDKSSSTAYMQLNSLTSEDSAFYYCARSDGYYDAMDYWGQGTSVTVSS
VL: DVQITQSPSYLAASPGETITINCRASKSISKYLAWYQEKPGKANKLLIHSGSTLQSGIPSRFSGSGSGTDFTLTISSLEPEDFAMYYCQQHIEYPWTFGGGTKLEIKR
Turning to B1, the EC50 in test [1] amounted to 2.3 nM; in test [2], 2.5 nM; in test [3], 2.7 nM; in test [4], 2.2 nM.
